Laboratory results taken from PMC4332253 (The Journal of Cell Biology, 2015).
Ends that are not written are not given here.

T1: MBP-Cdc12 (aa 1–764) (S. pombe, UniProt Q10059 1-764)
T1 sequence (looked up): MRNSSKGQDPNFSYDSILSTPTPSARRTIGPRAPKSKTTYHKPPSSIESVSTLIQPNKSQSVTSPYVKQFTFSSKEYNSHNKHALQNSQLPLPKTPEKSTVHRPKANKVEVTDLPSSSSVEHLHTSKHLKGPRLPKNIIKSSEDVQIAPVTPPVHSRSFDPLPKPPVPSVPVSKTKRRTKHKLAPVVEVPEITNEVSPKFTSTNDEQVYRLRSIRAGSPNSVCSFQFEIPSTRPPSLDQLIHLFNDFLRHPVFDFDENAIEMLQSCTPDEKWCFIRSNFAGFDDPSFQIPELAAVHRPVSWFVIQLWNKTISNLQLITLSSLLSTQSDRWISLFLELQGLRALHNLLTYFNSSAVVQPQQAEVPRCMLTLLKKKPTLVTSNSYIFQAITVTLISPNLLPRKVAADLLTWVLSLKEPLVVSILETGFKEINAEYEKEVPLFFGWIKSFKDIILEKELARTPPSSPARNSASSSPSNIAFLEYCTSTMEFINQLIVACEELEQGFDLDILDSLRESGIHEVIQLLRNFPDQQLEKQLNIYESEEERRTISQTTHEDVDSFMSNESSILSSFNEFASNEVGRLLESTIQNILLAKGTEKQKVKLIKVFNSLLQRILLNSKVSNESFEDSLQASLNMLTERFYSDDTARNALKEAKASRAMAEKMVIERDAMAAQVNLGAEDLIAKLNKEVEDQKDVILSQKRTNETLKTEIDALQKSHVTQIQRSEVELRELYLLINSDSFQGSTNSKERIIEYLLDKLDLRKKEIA

B1: Cdc15 F-BAR (aa 19–312) (domain or fragment, S. pombe, UniProt Q09822 19-312, looked up)
chain: SVKFRDNFWGSEDAGMDALMSRTKSSLSVLESIDEFYAKRASIEREYASKLQELAASSADIPEVGSTLNNILSMRTETGSMAKAHEEVSQQINTELRNKIREYIDQTEQQKVVAANAIEELYQKKTALEIDLSEKKDAYEYSCNKLNSYMRQTKKMTGRELDKYNLKIRQAALAVKKMDAEYRETNELLLTVTREWIDRWTEVCDAFQHIEEYRLEFLKTNMWAYANIISTACVKDDESCEKIRLTLENTNIDEDITQMIQNEGTGTTIPPLPEFNDYFKENGLNYDIDQLISK

What was measured:
Cdc15 F-BAR (aa 19–312) = target: B1; test: pull-down
MBP-Cdc12 (aa 1–764) = target: T1, MBP-Cdc12 (aa 1–764); test: pull-down

Row | Kd (Cdc15 F-BAR (aa 19–312)) | binding result (MBP-Cdc12 (aa 1–764)) | Binder
1 | 1.1 nM |  | TPTPSARRTIGPRAPKSKTTY (peptide, UniProt Q10059 20-40, looked up, also: biotinylated, position not given here) [Cdc12 (aa 20–40) synthetic peptide]
2 |  | binds | B1
